Laboratory results: the nanobody polyreactivity screen of Harvey et al. (2022)

Assay: yeast display, Sf9 membrane polyspecificity reagent, FACS + sequencing; frameworks hold sequencing errors
How it was run: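 A nanobody's polyreactivity label depends on the gate it was sorted from. Yeast display cells were stained with 10% biotinylated, detergent-solubilized Sf9 membrane reagent for 1 hour at 4 °C, enriched on streptavidin microbeads and sorted by FACS. The low and high (top ~1%) gates were set on anti-HA fluorescence for expression and streptavidin fluorescence for reagent binding.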

Sequence | polyreactivity (PSR sort gate)
QVQLVESGGGLVQAGGSLRLSCAASGLIFTSYAMGWYRQAPGKERELVAAISYSGGTTFYADSVKGRFTISRDNAKNTVYLQMNSLKPEDTAVYYCAADSLSTTHDTLGYDRDDYWGQGTQVTVSS | low polyreactivity
QVQLVESGGGLVQAGGSLRLSCAASGLIFTTYAMGWYRQAPGKERELVAAISSSGDSTYYADSVKGRFTISRDNAKNTVYLQMNSLKPEDTAVYYCAARYYYRGYEFGYWGQGTQVTVSS | high polyreactivity
QVQLVESGGGLVQAGGSLRLSCAASGLIFTYYAMGWYRQAPGKERELVAAITSGGTTNYADSVKGRFTISRDNAKNTVYLQMNSLKPEDTAVYYCAADYDTGSERYEYWGQGTQVTVSS | low polyreactivity
QVQLVESGGGLVQAGGSLRLSCAASGLIFVDNAMGWYRQAPGKERELVAAIDSGGRTYYADSVKGRFTISRDNAKNTVYLQMNSLKPEDTAVYYCAAPWRLFCLYDYWGQGTQVSVSS | low polyreactivity
QVQLVESGGGLVQAGGSLRLSCAASGLIFVNDMGLYRQAPGKEREFVAAITYSTGSTYYADSVKGRFTISRDNAKNTVYLQMNSLKPEDTAVYYCAKDRSGHGTERDYWGQGTQVTVSS | low polyreactivity
QVQLVESGGGLVQAGGSLRLSCAASGLIFVPYAMGWYRQAPGKERELVAAINSGATTYYADSVKGRFTISRDNAKNTVYLQMNSLKPEDTAVYYCAARSRFTESSRYYYWGQGTQVTVSS | high polyreactivity
QVQLVESGGGLVQAGGSLRLSCAASGLIFVRYAMGWYRQAPGKERELVAAITTGGRTYYADSVKGRFTISRDNAKNTVYLQMNSLKPEDTAVYYCAAQSFYGIYYGQQDYDYWGQGTQVTVSS | high polyreactivity
QVQLVESGGGLVQAGGSLRLSCAASGLIFVVYAMGWYRPAPGKERELVADISSGGRTSYADSVKGRFTISRDNAKNTVYLQMNSLKPEDTAVYYCNAYPVFNQYYGWRYDYWGQGTQVTVSS | low polyreactivity
QVQLVESGGGLVQAGGSLRLSCAASGLIFVWYAMGWYRQAPGKERELVAAISWSGGSTYYADSVKGRFTISRDNAKTTVYLQMNSLKPEDTAVYYCATDPFGYSYLLVDYNYWGQGTQVTVSS | low polyreactivity
QVQLVESGGGLVQAGGSLRLSCAASGLIFVYYAMGWYRQAPGKERELVAAITSRGGSTYYADSVKGRFTISRDNAKNTVYLQMNSLKPEDTAVYYCAAVYRHGAFPRYGYWGQGTQVTVSS | high polyreactivity
QVQLVESGGGLVQAGGSLRLSCAASGLIFVYYDMGWYRQAPGKERELVAAISSSGSTYYADSVKGRFTISRDNAKNTVYLQMNSLKPEDTAVYYCAAEYLYWPFGSNYWGQGTQVTVSS | high polyreactivity
QVQLVESGGGLVQAGGSLRLSCAASGLIFVYYTMGWYRQAPGKERELVARISQSGGTTYYADSVKRRFTISRDNAKNTVYLQLNSLKREDTAVYYCAAVYQLYYSGGRYYYWGQGSQVTVSS | high polyreactivity
QVQLVESGGGLVQAGGSLRLSCAASGLIFWGYAMGWYRQAPGKERELVAAISSSGGSTYYADSVKGRFTISRDNAKNTVYLQMNSLKPEDTAVYYCNADYTYYPGYDYWGQGTQVTVSS | low polyreactivity
QVQLVESGGGLVQAGGSLRLSCAASGLIFWYYAMGWYRQAPGKERELVAVITRSDASTYYADSVKGRFTISRDNAKNTVYVQMNSLKPEDTAVYYCAAYIRYGYSPWGYDYWGQGTQVSVSS | low polyreactivity
QVQLVESGGGLVQAGGSLRLSCAASGLIFYDNMGWYIQAPGKEREMVAAISSSGGSTSYADSVKGRFTISRDNAKNTVYLQMNSLKPEDTAVYYCAADSYPAYLGFVGFDYWGQGTQVTVSS | low polyreactivity
QVQLVESGGGLVQAGGSLRLSCAASGLIFYDNMGWYRQAPGKERELVAAISSSGGSTSYADSVKGRFTISRDNAKKTVYLQMNSLKPEDTAVYYCAAKWSHVRDGPKYDYWGQGTQVTVSS | low polyreactivity
QVQLVESGGGLVQAGGSLRLSCAASGLIFYDNMGWYRQAPGKERELVAAISSSGGSTSYADSVKGRFTISRDNAKNTVYLQMNSLKPEDTAVYFCAADSYPAYLGFVGFDYWGQGTQVTVSS | low polyreactivity
